Our source for the kcat values is ChEMBL document CHEMBL1146311, “Carbonic anhydrase activators: L-Adrenaline plugs the active site entrance of isozyme II, activating better isoforms I, IV, VA, VII, and XIV” (Bioorg Med Chem Lett, 2007).

Details in all cases: Homo sapiens; 10 uM
Substrate in data set [1]: CNC[C@H](O)c1ccc(O)c(O)c1
Description: (§1) Activity of human recombinant CA5A at 10 uM by stopped-flow technique
Substrate in data set [2]: NCCc1c[nH]cn1
Description: as §1
Substrate in data set [3]: CNC[C@H](O)c1ccc(O)c(O)c1
This is another data set of the same source.
Description: (§2) Activity of human recombinant CA14 at 10 uM by stopped-flow technique

Substrate in data set [4]: NCCc1c[nH]cn1
The source holds these as a separate data set.
Description: as §2

Substrate in data set [5]: CNC[C@H](O)c1ccc(O)c(O)c1
The source holds these as a separate data set.
Description: (§3) Activity of human recombinant CA7 at 10 uM by stopped-flow technique

Substrate in data set [6]: NCCc1c[nH]cn1
The source holds these as a separate data set.
Description: as §3

Substrate in data set [7]: CNC[C@H](O)c1ccc(O)c(O)c1
This is another data set of the same source.
Description: (§4) Activity of human recombinant CA4 at 10 uM by stopped-flow technique

Substrate in data set [8]: NCCc1c[nH]cn1
Description: as §4
This is another data set of the same source.

B1: Carbonic anhydrase 5A, mitochondrial (Homo sapiens), P35218 (protein)
chain: MLGRNTWKTSAFSFLVEQMWAPLWSRSMRPGRWCSQRSCAWQTSNNTLHPLWTVPVSVPGGTRQSPINIQWRDSVYDPQLKPLRVSYEAASCLYIWNTGYLFQVEFDDATEASGISGGPLENHYRLKQFHFHWGAVNEGGSEHTVDGHAYPAELHLVHWNSVKYQNYKEAVVGENGLAVIGVFLKLGAHHQTLQRLVDILPEIKHKDARAAMRPFDPSTLLPTCWDYWTYAGSLTTPPLTESVTWIIQKEPVEVAPSQLSAFRTLLFSALGEEEKMMVNNYRPLQPLMNRKVWASFQATNEGTRS
Take B1: the catalytic constant (kcat) in data set [1] was 3.9 10^5/s; in data set [2] it was 8.6 10^5/s.

B2: Carbonic anhydrase 14 (Homo sapiens), Q9ULX7 (protein)
chain: MLFSALLLEVIWILAADGGQHWTYEGPHGQDHWPASYPECGNNAQSPIDIQTDSVTFDPDLPALQPHGYDQPGTEPLDLHNNGHTVQLSLPSTLYLGGLPRKYVAAQLHLHWGQKGSPGGSEHQINSEATFAELHIVHYDSDSYDSLSEAAERPQGLAVLGILIEVGETKNIAYEHILSHLHEVRHKDQKTSVPPFNLRELLPKQLGQYFRYNGSLTTPPCYQSVLWTVFYRRSQISMEQLEKLQGTLFSTEEEPSKLLVQNYRALQPLNQRMVFASFIQAGSSYTTGEMLSLGVGILVGCLCLLLAVYFIARKIRKKRLENRKSVVFTSAQATTEA
Consider B2, for which the kcat is 4.5 10^5/s in data set [3] and 10 10^5/s in data set [4].

B3: Carbonic anhydrase 7 (Homo sapiens), P43166 (protein)
chain: MTGHHGWGYGQDDGPSHWHKLYPIAQGDRQSPINIISSQAVYSPSLQPLELSYEACMSLSITNNGHSVQVDFNDSDDRTVVTGGPLEGPYRLKQFHFHWGKKHDVGSEHTVDGKSFPSELHLVHWNAKKYSTFGEAASAPDGLAVVGVFLETGDEHPSMNRLTDALYMVRFKGTKAQFSCFNPKCLLPASRHYWTYPGSLTTPPLSESVTWIVLREPICISERQMGKFRSLLFTSEDDERIHMVNNFRPPQPLKGRVVKASFRA
Turning to B3, the kcat is 10.4 10^5/s in data set [5] and 15.2 10^5/s in data set [6].

B4: Carbonic anhydrase 4 (Homo sapiens), P22748 (protein)
chain: MRMLLALLALSAARPSASAESHWCYEVQAESSNYPCLVPVKWGGNCQKDRQSPINIVTTKAKVDKKLGRFFFSGYDKKQTWTVQNNGHSVMMLLENKASISGGGLPAPYQAKQLHLHWSDLPYKGSEHSLDGEHFAMEMHIVHEKEKGTSRNVKEAQDPEDEIAVLAFLVEAGTQVNEGFQPLVEALSNIPKPEMSTTMAESSLLDLLPKEEKLRHYFRYLGSLTTPTCDEKVVWTVFREPIQLHREQILAFSQKLYYDKEQTVSMKDNVRPLQQLGQRTVIKSGAPGRPLPWALPALLGPMLACLLAGFLR
Consider B4, for which the turnover number (kcat) in data set [7] is 2.9 10^6/s; in data set [8] it was 3.5 10^6/s.

As usually defined, the kcat is the number of substrate molecules converted per active site and unit of time at saturation.
